Laboratory results: patent US7674604 (CENTER FOR BLOOD RESEARCH, dated 2010)

Assays:
[1] = target: murine ICAM-1 (murine, UniProt P13597 28-485, limits assumed); assay: cell-based or functional assay
[2] = target: T1, ICAM-1 purified from human tonsil, coated on 96-well plates (human, UniProt P05362 28-532); assay: competition: soluble I-domain against adhesion of K562 cells with wild-type LFA-1 (activated by mAb CBRLFA-1/2) to plate-coated ICAM-1; cells bound (% of input)
T1 construct: mature; also called immobilized ICAM-1

- IC50 (read off the curve), PMA-induced homotypic aggregation of EL-4 cells (aggregation score 0 to 5) [1]: ~1000 nM
- IC50 (read off the curve) [2]: ~200 nM
B1: recombinant soluble αL I-domain K287C/K294C (G128 to Y307) stabilized in the open conformation, made in E. coli (receptor)
chain: GNVDLVFLFDGSMSLQPDEFQKILDFMKDVMKKLSNTSYQFAAVQFSTSYKTEFDFSDYVKRKDPDALLKHVKHMLLLTNTFGAINYVATEVFREELGARPDATKVLIIITDGEATDSGNIDAAKDIIRYIIGIGKHFQTKESQETLHKFASKPASEFVCILDTFECLKDLFTELQKKIY
modifications: chain 1: disulfide between C160 and C167 (mature C287, C294)
notes: also called open I-domain; soluble open I-domain
